Test results taken from US20160068860A1, “TRANSGENIC PLANTS” (CONSEJO SUPERIOR DE INVESTIGACIONES CIENTIFICAS (CSIC), priority 2013, published 2016).

B1: PYL4H82R V97A (AtPYL H82 and V97A) (receptor)
chain: MLAVHRPSSAVSDGDSVQIPMMIASFQKRFPSLSRDSTAARFHTHEVGPNQCCSAVIQEISAPISTVWSVVRRFDNPQAYKRFLKSCSVIGGDGDNAGSLRQVHVVSGLPAASSTERLDILDDERHVISFSVVGGDHRLSNYRSVTTLHPSPISGTVVVESYVVDVPPGNTKEETCDFVDVIVRCNLQSLAKIAENTAAESKKKMSL
notes: also called PYL4H82R (found combined with V97A)
B2: PYL4A194T: AtPYL4 ABA receptor mutant polypeptide with A194T substitution (SEQ ID NO. 60; nucleic acid SEQ ID NO: 55); also over-expressed in plants (protein, listed as Arabidopsis thaliana)
chain: MLAVHRPSSAVSDGDSVQIPMMIASFQKRFPSLSRDSTAARFHTHEVGPNQCCSAVIQEISAPISTVWSVVRRFDNPQAYKHFLKSCSVIGGDGDNVGSLRQVHVVSGLPAASSTERLDILDDERHVISFSVVGGDHRLSNYRSVTTLHPSPISGTVVVESYVVDVPPGNTKEETCDFVDVIVRCNLQSLAKITENTAAESKKKMSL

What was measured:
[1] = target: T1, PP2CA (clade A protein phosphatase 2C, At3g11410) (Arabidopsis thaliana, UniProt P49598 1-399, limits assumed); experiment: yeast two-hybrid growth assay, absence of ABA; H82R was found combined with V97A
T1 construct: BiFC: PP2CA-YFPN (pSPYNE-35S); also called AtPP2CA
T1 sequence (looked up): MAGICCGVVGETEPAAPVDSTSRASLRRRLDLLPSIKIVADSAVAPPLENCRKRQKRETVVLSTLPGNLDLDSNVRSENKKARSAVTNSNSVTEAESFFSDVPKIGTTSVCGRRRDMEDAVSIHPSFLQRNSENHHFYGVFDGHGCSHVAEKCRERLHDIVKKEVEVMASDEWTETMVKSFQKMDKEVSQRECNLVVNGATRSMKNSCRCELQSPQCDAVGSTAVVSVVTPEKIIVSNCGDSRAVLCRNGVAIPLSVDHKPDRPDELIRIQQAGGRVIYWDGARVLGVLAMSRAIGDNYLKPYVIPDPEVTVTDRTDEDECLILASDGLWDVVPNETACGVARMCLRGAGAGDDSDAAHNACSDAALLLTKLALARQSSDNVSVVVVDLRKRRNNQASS

RD29B = experiment: Quantitative RT-PCR of ABA-responsive gene RD29B in OE plants; format: in vivo, Arabidopsis thaliana
Description: ABA treatment, RNA extraction and quantitative RT-PCR amplifications were performed as previously described (Saez et al., 2004).

PP2CA [2] = target: T2, PP2CA (Arabidopsis thaliana, UniProt O80920+P49598, A194T); experiment: In vitro reconstitution: PP2CA-mediated dephosphorylation of OST1, ΔC-ABF2, ΔC-ABI5, SLAC1 1-186; format: biochemical; parameters: made in house; host or cells: E. coli BL21 (DE3)
Description: Phosphatase activity was measured using as a substrate either pNPP or phosphorylated ΔC-ABF2, ΔC-ABI5 and SLAC11-186 proteins. For the pNPP substrate, assays were performed in a 100 μl solution containing 25 mM Tris-HCl pH 7.5, 2 mM MnCl2 and 5 mM pNPP. Assays contained 2 μM phosphatase (PP2CA or HAB1), 4 μM receptor and the indicated concentrations of ABA. Phosphatase activity was recorded with a ViktorX5 reader at 405 nm every 60 seconds over 30 minutes and the activity obtained after 30 minutes is indicated in the graphics. In order to obtain phosphorylated ΔCABF2, ΔC-ABI5 and SLAC11-186 proteins, OST1 phosphorylation assays were done basically as described previously (Dupeux et al., 2011 b). ΔC-ABF2 and SLAC11-186 N-terminal fragments were prepared as described (Antoni et al., 2012; Vahisalu et al., 2010). ΔC-ABI5 recombinant protein (amino acid residues 1-200, containing the C1, C2 and C3 target sites of ABA-activated SnRK2s) was expressed in the pETM11 vector as described above. The reaction mixture containing the OST1 kinase and either ΔCABF2, ΔC-ABI5 or SLAC11-186 recombinant proteins were incubated for 50 min at room temperature in 30 μl of kinase buffer: 20 mM Tris-HCl pH 7.8, 20 mM MgCl2, 2 mM MnCl2, and 3.5 μCi of γ-32ATP (3000 Ci/mmol). Thus, OST1 was autophosphorylated and in turn it phosphorylated ΔC-ABF2, ΔC-ABI5 and SLAC11-186 proteins. […] The reaction was stopped by adding Laemmli buffer and the proteins were separated by SDS-PAGE using an 8% acrylamide gel and transferred to an Immobilon-P membrane (Millipore). Radioactivity was detected and quantified using a Phosphorimage system (FLA5100, Fujifilm). After scanning, the same membrane was used for Ponceau staining. The data presented are averages of at least three independent experiments.

PP2CA [3] = target: T2, PP2CA; experiment: In vitro phosphatase activity assay with pNPP substrate, PP2CA; format: biochemical; parameters: made in house; host or cells: E. coli BL21 (DE3); conditions: for inhibitory effect on the activity of PP2CA with respect to PYL4: absence of ABA, 2 μM phosphatase, 4 μM receptor
Description: Phosphatase activity was measured using as a substrate either pNPP or phosphorylated ΔC-ABF2, ΔC-ABI5 and SLAC11-186 proteins. For the pNPP substrate, assays were performed in a 100 μl solution containing 25 mM Tris-HCl pH 7.5, 2 mM MnCl2 and 5 mM pNPP. Assays contained 2 μM phosphatase (PP2CA or HAB1), 4 μM receptor and the indicated concentrations of ABA. Phosphatase activity was recorded with a ViktorX5 reader at 405 nm every 60 seconds over 30 minutes and the activity obtained after 30 minutes is indicated in the graphics. In order to obtain phosphorylated ΔCABF2, ΔC-ABI5 and SLAC11-186 proteins, OST1 phosphorylation assays were done basically as described previously (Dupeux et al., 2011 b). ΔC-ABF2 and SLAC11-186 N-terminal fragments were prepared as described (Antoni et al., 2012; Vahisalu et al., 2010). ΔC-ABI5 recombinant protein (amino acid residues 1-200, containing the C1, C2 and C3 target sites of ABA-activated SnRK2s) was expressed in the pETM11 vector as described above. The reaction mixture containing the OST1 kinase and either ΔCABF2, ΔC-ABI5 or SLAC11-186 recombinant proteins were incubated for 50 min at room temperature in 30 μl of kinase buffer: 20 mM Tris-HCl pH 7.8, 20 mM MgCl2, 2 mM MnCl2, and 3.5 μCi of γ-32ATP (3000 Ci/mmol). Thus, OST1 was autophosphorylated and in turn it phosphorylated ΔC-ABF2, ΔC-ABI5 and SLAC11-186 proteins. Next, they were used as substrates of PP2CA that was preincubated (or not) for 10 with PYL4 or PYL4A194T (1:10 phosphatase:receptor ratio) either in the absence or presence of 30 μM ABA. The reaction was stopped by adding Laemmli buffer and the proteins were separated by SDS-PAGE using an 8% acrylamide gel and transferred to an Immobilon-P membrane (Millipore). Radioactivity was detected and quantified using a Phosphorimage system (FLA5100, Fujifilm). After scanning, the same membrane was used for Ponceau staining. The data presented are averages of at least three independent experiments.

[4] = 30 μM ABA, 1:10 phosphatase:receptor

Molecule | binding result [1] | induction of RD29B after ABA-treatment (RD29B; 10 μM ABA for 3 h) | expression of RD29B up-regulated compared to non-transformed plants (RD29B; absence of exogenous ABA treatment) [fold] | inhibition of dephosphorylation by PP2CA of ΔC-ABI5 and SLAC1 1-186 (PP2CA [2]; [4]) | inhibition of dephosphorylation of ΔC-ABF2 (PP2CA [2]; [4]) | inhibition of dephosphorylation of ΔC-ABF2, ΔC-ABI5 and SLAC1 1-186, better than PYL4 (PP2CA [2]; 0.5-1 μM ABA, 1:1 phosphatase:receptor ratio) | inhibition of dephosphorylation of PP2CA targets, difference to PYL4 (PP2CA [2]; absence of ABA, 1:10 phosphatase:receptor) | protection of OST1 phosphorylation compared to PYL4 (PP2CA [2]; low ABA concentrations, 1:1 phosphatase:receptor ratio) | inhibitory effect on the activity of PP2CA with respect to PYL4 (PP2CA [3]) | inhibitory effect on the activity of PP2CA with respect to PYL4 (PP2CA [3]; listed as PYL4^A194T) [%] | inhibition of PP2CA (PP2CA [3]; presence of 1 μM ABA)
B1 | binds |  |  |  |  |  |  |  |  |  | 
B2 |  | not higher than in non-transformed plants | 23 | inhibited better than PYL4 | not more effective than PYL4 | 2-3 fold | did not find significant differences | improved | around 20% | 20 | higher inhibition of PP2CA than PYL4
